The supplement of paper PMC9170038

Test system: MS2 coat protein
Assay: apparent KD of MS2 coat protein; designed switch direction (-1 OFF switch, 1 ON switch): -1; higher = weaker reporter binding
In short: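 Three titration conditions were used: no input, 200 uM small-molecule ligand, and an oligonucleotide input. In each, SNAP-549-labelled MS2 coat protein was raised from 0.7 or 1.5 nM, doubling, to 3 µM over designed RNA switches transcribed on Illumina chips by stalled E. coli RNA polymerase. Curve fits of normalised cluster fluorescence gave values whose per-design median over clusters is the apparent KD.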

[1] = Eterna round: R95, input ligand: FMN 200 uM
[2] = Eterna round: R95, input ligand: microRNA oligo, concentration not stated
[3] = Eterna round: R95, input ligand: none

Row | Sequence | apparent KD of MS2 coat protein (input ligand: FMN 200 uM) | apparent KD of MS2 coat protein (input ligand: microRNA oligo, concentration not stated) | apparent KD of MS2 coat protein (input ligand: none) | apparent KD of MS2 coat protein [1] | apparent KD of MS2 coat protein [2] | apparent KD of MS2 coat protein [3]
1 | GCAGUGACAUGAGGAUCACCCAUGUGGAACUCGUGAAUAAGCGAGGAUAUCUCAAGAUAUCAAAGAGAGAAGGCGUACACUGCA [Diorso] (Eterna round: R96, puzzle: Exclusion NG 3) | 0.731 µM | 0.159 µM | 0.229 µM | – | – | –
2 | GCAGUGCGAGGAUAUACAUGAGGAUCACCCAUGUGAGAAGAAUAAGUGAGGAAGAAAAGUAGAAGGCGCGUUGG [Mat - Exclusion 3 - Mod of Salish D68] (puzzle: Exclusion 3) | – | – | – | 0.0718 µM | 0.0474 µM | 0.0546 µM
3 | GCAUCGUAAGGAUAUCAGCCGGUGGUAUACCGAAACAGGGUUGAGAAGGUACAUGAGGAUCACCCAUGUGAUUU [Eternabot (L2) Solution 37] (Eterna round: R97, puzzle: Exclusion 4) | 0.203 µM | – | 0.0586 µM | – | – | –
4 | GCAUGCUUUUUGCUCGUUUACAUGAGGAUCACCCAUGUACAUGGGUGAGCCGCAUGUACAGAAAGGAAAACUUUUUG [Alacar Attempt 2] (Eterna round: R97, puzzle: Sensor, turn-off variant 1) | 0.0211 µM | – | 0.0247 µM | – | – | –
5 | GCCAAUGUGGAGGAUAUCGACUUCGAAAGAAGUCGAGAAGGCCACACAUGAGGAUCACCCAUGUGAUGCCAGGC [Omei Ex6 H10] (Eterna round: R97, puzzle: Exclusion 6) | 0.216 µM | – | 0.189 µM | – | – | –
6 | GCCAGAGCAGGAUAUUCAAAACCUCACAUGAGGAUCACCCAUGUGGCCGAAAGGCCGGGAGGAGAAGGGCUCUGGC [Fiskers Ex 5 - 1] (puzzle: Exclusion 5) | – | – | – | 0.0498 µM | 0.0133 µM | 0.0158 µM
7 | GCCAGAGCAGGAUAUUCAAUAUUCCACAUGAGGAUCACCCAUGUCCAGCGAAAGCUGGAGGGAGAAGGGCUCUGGC [Fiskers Ex 5 - 8] (puzzle: Exclusion 5) | – | – | – | 0.0273 µM | 0.0436 µM | 0.0563 µM
8 | GCCAGAGCAGGAUAUUGAAUAAUUCACAUGAGGAUCACCCAUGUCCAGCGAAAGCUGGAACGAGAAGGGCUCUGGC [Fiskers Ex 5 - 5] (puzzle: Exclusion 5) | – | – | – | 0.0125 µM | 0.0117 µM | 0.0111 µM
9 | GCCAGAGCAGGAUAUUUAUAUUAUCACAUGAGGAUCACCCAUGUCCAGCGAAAGCUGGAGGGAGAAGGGCUCUGGC [Fiskers Ex 5 - 25] (puzzle: Exclusion 5) | – | – | – | 0.121 µM | 0.19 µM | 0.25 µM
10 | GCCAGAUCAGGAUAUCUAAUAUAUCACAUGAGGAUCACCCAUGUCCAGCGAAAGCUGGAGGGAGAAGGGAUCUGGC [Mat - Exclusion 5 - Eli mod - D102] (puzzle: Exclusion 5) | – | – | – | 0.0398 µM | 0.0798 µM | 0.0482 µM
11 | GCCAUGGGAGGAUAUACGUCAUAGGUUACCUCACGCUGGCGACAUGAGGAUCACCCAUGUAGAAGGCUCAGAUG [Eternabot (L2) Solution 12] (Eterna round: R97, puzzle: Exclusion 2) | 0.101 µM | – | 0.113 µM | – | – | –
